Measurements taken from the supplement of paper PMC10567573.

B1: TRIM14 (parent)
chain: YARTPTLDPDTMHARLRLSADRLT
B2: ETS2 (parent)
chain: TSGKRYVYRFVCDLQNLLGFTPEE

Variants of: B1
Assay: protein stability index of a GFP-peptide fusion (GPS, HEK-293T) (PSI 1-6); higher = more stable
Conditions: c terminus: a fixed tail appended
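Also: lentivirally expressed fusions sorted by FACS into six bins by GFP to DsRed ratio, PSI derived from sequencing read proportions per bin multiplied by bin number.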

Protein stability index: each site, then its substitutions
R15: H 2.73; F 1.93; V 2.04; T 3.03
T24: P 2.17; L 1.76
A20: H 2.56; V 1.96; M 2.35; N 2.55; S 3.14
Y1: I 2.71; Q 4.33; H 4.06; W 2.91
T11: G 2.39; A 2.68; P 2.79; E 3.46; H 2.12; R 3.65; C 2.94; M 2.12; D 3.07
D8: K 2.95; V 2.78; G 2.18; S 2.5; Y 1.8; F 2.5; E 2.26
D21: M 1.96; P 2.06; N 2.54; I 1.23; S 3.05; K 2.06; L 1.8
A2: H 2.46; Y 2.9; F 2.74; I 1.73; W 2.5; G 3.06; S 2.44
L23: W 2.03; G 2.58; F 2.13; T 2.55; M 3.06
L7: H 2.65; R 2.76; Q 2.81
A14: Q 2.59; V 2.53; F 1.96; L 2.81; N 3.08; T 2.61; C 2.62
L16: F 2.84; P 2.94; Y 2.19; Q 2.93; N 2.57
T4: E 4.06; R 3.13; G 2.21; V 2.78
T6: M 2.71; K 2.33; H 2.44; V 2.22; S 2.28
P9: Q 2.56; E 2.56; I 2.3; A 2.82
R22: Q 2.59; Y 2.62; K 2.33; P 2.31; L 2.68; T 2.62; W 2.01; V 2.26
D10: C 2.22; S 3.77; Y 2.34; T 2.66; K 3.05; M 2.4
R17: L 2.29; V 2.31; I 2.81; E 3.04; K 2.58
R3: Q 3.81; E 2.18; G 2.78; A 2.66
M12: G 2.89; A 2.56; Y 2.01; L 2.43; I 2.62; T 2.74
H13: I 2.69; T 2.77; V 2.23; D 3.77; S 3.17; R 2.87; P 3.06; M 2.69; L 2.61; Y 2.3; E 2.71; A 2.62
P5: V 1.96; L 2.34; E 2.62; S 2.16; I 2.17; R 1.98; C 2.18; Q 2.56
L18: Y 2.93; R 2.81; M 2.65; F 2.04; D 3.38; A 3.6
S19: C 2.42; Y 1.89; A 2.5; P 3.06; D 2.59; E 2.93; V 3.62

Variants of: B2
Assay: as above
Conditions: c terminus: a fixed tail appended

Protein stability index of substitutions, site by site:
E23: N 2.43; V 2.1; T 2.17; R 3.3; Q 2.63; W 2.88; S 2.38; Y 2.29; P 3.46
E24: L 1.96; V 2.51; K 1.81; W 2.5; S 2.21; C 2.32; G 2.14; M 1.6; Y 2.38; P 2.52; A 2.69; Q 1.89; N 2.33; H 2.03; F 2.96; I 1.75; T 2.71; R 1.96
